{"source": "IntAct's records for PubMed 19696784", "parents": {"B1": {"name": "Microtubule protein alp7 (Schizosaccharomyces pombe (strain ATCC 38366 / 972)), Q9URY2 (parent)", "chain": "MSDIVSSSTDYSRRSPSSSSIGTNETDHTGFHEKRQGASSESLIPPAQRSSEESMPAPKLFPKLTSKPNPQLNLKDTLNKRVSDRLQALELNKSFDFSGTPRPMHPISHPLSQHKTPEFKHRKRNVESILTPKNPSLFSSSNAASQRGSLNTAPSNFAYSHSSSLQTSASSRPPVLSNGSFPRQTNTAPLNPPVHLKDNIRNSATPSTSQADIPTQYPINSTQKQQAKYEAEIEGYKAKLAGTYHEISVLQNTIVNVSGQLIAVNDQLQQLRSGKASTSPSTKDTNMRLVEGHNEETLALQRGKYTQEEVDKLIQERMEKVAEDLHAQYSAKHTQKINAFKANYARKYEATIQELQNQIGTAPNAPKISNSNWEEERRALKADNQTLQKQLEKAIQERQDMSDFLNNFKADMAKSDKLLMQQQSQQTGDLETLRLQLQALQEELRVEREERQQLIQMSEDLVIAMDQLNLEQKS", "partner": "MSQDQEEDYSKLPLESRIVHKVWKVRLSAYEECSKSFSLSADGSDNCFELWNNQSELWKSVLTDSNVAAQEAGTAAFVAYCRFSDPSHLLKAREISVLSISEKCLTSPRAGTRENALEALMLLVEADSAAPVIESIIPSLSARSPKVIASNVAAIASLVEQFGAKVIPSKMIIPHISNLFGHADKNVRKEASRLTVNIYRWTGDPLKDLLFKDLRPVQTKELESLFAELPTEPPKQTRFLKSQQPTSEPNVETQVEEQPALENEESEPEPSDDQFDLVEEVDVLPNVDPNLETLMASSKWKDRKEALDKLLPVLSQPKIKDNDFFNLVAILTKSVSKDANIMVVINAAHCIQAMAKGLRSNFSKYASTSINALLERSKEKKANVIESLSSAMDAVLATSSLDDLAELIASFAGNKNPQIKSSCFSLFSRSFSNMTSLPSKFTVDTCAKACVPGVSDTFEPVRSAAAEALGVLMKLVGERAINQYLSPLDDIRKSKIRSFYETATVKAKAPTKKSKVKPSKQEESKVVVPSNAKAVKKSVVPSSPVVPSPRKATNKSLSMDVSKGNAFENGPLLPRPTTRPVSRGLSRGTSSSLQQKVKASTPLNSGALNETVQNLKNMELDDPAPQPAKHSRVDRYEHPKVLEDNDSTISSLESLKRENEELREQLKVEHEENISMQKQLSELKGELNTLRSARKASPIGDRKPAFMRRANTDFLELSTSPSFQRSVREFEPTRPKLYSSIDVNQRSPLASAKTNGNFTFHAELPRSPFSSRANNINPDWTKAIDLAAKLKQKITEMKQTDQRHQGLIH"}}}
{"variants_of": "B1", "conditions": "with alp14_schpo alp14, O94534"}
{"variant": "MSDIVSSSTDYSRRSPSSSSIGTNETDHTGFHEKRQGASSESLIPPAQRSSEESMPAPKLFPKLTSKPNPQLNLKDTLNKRVSDRLQALELNKSFDFSGTPRPMHPISHPLSQHKTPEFKHRKRNVESILTPKNPSLFSSSNAASQRGSLNTAPSNFAYSHSSSLQTSASSRPPVLSNGSFPRQTNTAPLNPPVHLKDNIRNSATPSTSQADIPTQYPINSTQKQQAKYEAEIEGYKAKLAGTYHEISVLQNTIVNVSGQLIAVNDQLQQLRSGKASTSPSTKDTNMRLVEGHNEETLALQRGKYTQEEVDKLIQERMEKVAEDLHAQYSAKHTQKINAFKANYARKYEATIQELQNQIGTAPNAPKISNSNWEEERRALKADNQTLQKQLEKAIQERQDMSDFLNNFKADMAKSDKLLMQQQSQQTGDLETLRLQLQALQEELRVEREERQQLIQMSEDAVIAMDQLNLEQKS", "note": "[L461A]", "effect of a mutation on the interaction": "disrupting interaction"}
